Laboratory results published in article PMC10238420, “Altered Signaling and Desensitization Responses in PTH1R Mutants Associated with Eiken Syndrome” (Communications Biology, 2023).

Assays:
[1] = target: PTH1R-E35K (human PTH1R with an HA tag) (human) (UniProt Q03431); test: radioligand binding; total binding of ^125I-PTHrP(1-36) (20,000-30,000 cpm/well) to confluent monolayers of intact, transiently transfected Gs22a cells in 96-well plates; HB (Hanks balanced salt solution, 10 mM HEPES pH 7.4, 0.1% BSA); one hour at room temperature
[2] = target: PTH1R-Y134S (human PTH1R with an HA tag) (human) (UniProt Q03431); test: as above
[3] = target: PTH1R-R485X (human PTH1R with an HA tag, C-terminal tail truncated at R485) (human) (UniProt Q03431)
[4] = target: human PTH1R-WT with an HA tag (parathyroid hormone receptor type 1) (human) (UniProt Q03431)

Sequence of β-arrestin2-renilla luciferase (rLucII) (P32121 whole entry): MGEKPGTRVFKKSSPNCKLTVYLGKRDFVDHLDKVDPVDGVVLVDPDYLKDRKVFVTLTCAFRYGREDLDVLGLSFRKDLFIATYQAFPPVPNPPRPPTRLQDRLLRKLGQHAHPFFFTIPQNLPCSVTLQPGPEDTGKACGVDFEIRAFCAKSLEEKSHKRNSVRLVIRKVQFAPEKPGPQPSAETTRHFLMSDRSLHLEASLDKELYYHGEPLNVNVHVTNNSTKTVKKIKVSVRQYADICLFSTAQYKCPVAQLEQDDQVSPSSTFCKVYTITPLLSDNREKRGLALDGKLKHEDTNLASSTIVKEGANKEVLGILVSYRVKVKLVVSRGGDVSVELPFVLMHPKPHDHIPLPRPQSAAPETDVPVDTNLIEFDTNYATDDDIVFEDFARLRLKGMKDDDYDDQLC
Sequence of ^125I-PTHrP(1-36) (peptide) (P12272 37-72): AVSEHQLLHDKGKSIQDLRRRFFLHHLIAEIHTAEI

Row | Substance | reduction of total binding relative to PTH1R-WT [1] [%] | reduction of total binding relative to PTH1R-WT [2] [%] | PTH(1-34)-induced recruitment of β-arrestin2^rLucII to endosomes (BRET with rGFP-FYVE), fold-BRET increase from baseline [3] [fold] | PTH(1-34)-induced recruitment of β-arrestin2^rLucII to the plasma membrane (BRET with rGFP-CAAX), fold-BRET increase from baseline [3] [fold] | PTH(1-34)-induced recruitment of β-arrestin2^rLucII to endosomes (BRET with rGFP-FYVE), fold-BRET increase from baseline [4] [fold] | PTH(1-34)-induced recruitment of β-arrestin2^rLucII to the plasma membrane (BRET with rGFP-CAAX), fold-BRET increase from baseline [4] [fold]
1 | ^125I-PTHrP(1-36) (peptide) | 50 | 50 |  |  |  | 
2 | β-arrestin2-renilla luciferase (rLucII) (from UniProt P32121 1-409) (natural protein) |  |  | 1.33 | 2.69 | 6.08 | 4.79
